The target in test [1] is SARS-CoV-1 spike on pseudovirus (SARS-CoV-1) (UniProt P59594). The experiment in a line: cell-based or functional assay.
Test [2] has as its target SARS-CoV-2 spike on pseudovirus or live virus (USA-WA1/2020, WT) (SARS-CoV-2) (UniProt P0DTC2). Kind of test: cell-based or functional assay.

Turning to REGN10933 (antibody), the PSV in HeLa-ACE2 cells IC50 in test [1] was more than 25000 ng/mL. In test [2], this substance returned a PSV in HeLa-ACE2 cells IC50 of 6 ng/mL, a live virus IC50 (HeLa-ACE2) of 2 ng/mL and a live virus IC50 (Vero) of 1 ng/mL.

Consider REGN10987 (antibody), for which the PSV in HeLa-ACE2 cells IC50 in test [1] was more than 25000 ng/mL. In test [2], this substance yielded a PSV in HeLa-ACE2 cells IC50 of 93 ng/mL, a live virus IC50 (HeLa-ACE2) of 5 ng/mL and a live virus IC50 (Vero) of 1 ng/mL.

These data come from patent US20230357364A1.
